This note sets out measurements from US20160272683A1 (Novo Nordisk, published 2016).

Numbered stars: 1 amine (or outer) side, 2 acyl side, 3 side chain; on linkers, the order of the positions; unused ones are H or OH. * marks the point of attachment. C20 diacid = O=C(O)CCCCCCCCCCCCCCCCCCC(=O)*; C18 diacid = O=C(O)CCCCCCCCCCCCCCCCC(=O)*; γGlu = O=C(O)[C@H](CCC(=O)[*:2])N[*:1]

In the assay the target is T1, human amylin receptor (human calcitonin receptor + human RAMP3) (human) (UniProt P30988).
T1 sequence (looked up) 1: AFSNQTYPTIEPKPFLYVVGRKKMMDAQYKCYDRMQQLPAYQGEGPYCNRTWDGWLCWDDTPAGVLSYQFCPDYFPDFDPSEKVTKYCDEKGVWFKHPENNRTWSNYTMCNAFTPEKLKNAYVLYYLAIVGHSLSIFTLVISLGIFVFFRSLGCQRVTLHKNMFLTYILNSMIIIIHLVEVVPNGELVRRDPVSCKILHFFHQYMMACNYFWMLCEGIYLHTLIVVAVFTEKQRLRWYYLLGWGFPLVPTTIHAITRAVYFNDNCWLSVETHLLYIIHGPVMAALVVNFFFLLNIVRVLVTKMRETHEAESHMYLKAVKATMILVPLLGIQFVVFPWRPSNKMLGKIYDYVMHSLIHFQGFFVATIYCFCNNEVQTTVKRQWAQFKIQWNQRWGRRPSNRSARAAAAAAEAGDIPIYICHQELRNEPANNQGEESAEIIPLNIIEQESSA
T1 sequence (looked up) 2: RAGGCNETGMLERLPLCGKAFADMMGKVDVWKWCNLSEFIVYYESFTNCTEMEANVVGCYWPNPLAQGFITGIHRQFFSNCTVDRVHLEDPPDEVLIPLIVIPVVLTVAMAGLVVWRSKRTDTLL
The experiment in a line: whole-cell competition vs 125I-rat amylin (Assay Va).

B1: [N-terminal(C18 diacid), 5I, 9I, 10I, 20I]mimylin (peptide)
peptide: {C18 diacid}-EASEISTAIIGRLSAELHEIATLPRTETGPESP-NH2
SMILES: CC[C@H](C)[C@H](NC(=O)[C@H](C)NC(=O)[C@@H](NC(=O)[C@H](CO)NC(=O)[C@@H](NC(=O)[C@H](CCC(=O)O)NC(=O)[C@H](CO)NC(=O)[C@H](C)NC(=O)[C@H](CCC(=O)O)NC(=O)CCCCCCCCCCCCCCCCC(=O)O)[C@@H](C)CC)[C@@H](C)O)C(=O)N[C@H](C(=O)NCC(=O)N[C@@H](CCCNC(=N)N)C(=O)N[C@@H](CC(C)C)C(=O)N[C@@H](CO)C(=O)N[C@@H](C)C(=O)N[C@@H](CCC(=O)O)C(=O)N[C@@H](CC(C)C)C(=O)N[C@@H](Cc1c[nH]cn1)C(=O)N[C@@H](CCC(=O)O)C(=O)N[C@H](C(=O)N[C@@H](C)C(=O)N[C@H](C(=O)N[C@@H](CC(C)C)C(=O)N1CCC[C@H]1C(=O)N[C@@H](CCCNC(=N)N)C(=O)N[C@H](C(=O)N[C@@H](CCC(=O)O)C(=O)N[C@H](C(=O)NCC(=O)N1CCC[C@H]1C(=O)N[C@@H](CCC(=O)O)C(=O)N[C@@H](CO)C(=O)N1CCC[C@H]1C(N)=O)[C@@H](C)O)[C@@H](C)O)[C@@H](C)O)[C@@H](C)CC)[C@@H](C)CC
With B1, the IC50 turned out to be 0.998 nM.

B2: [N-terminal(C18 diacid-gGlu), des1, 4Q, 30S, 31G]mimylin (peptide)
peptide: {C18 diacid-γGlu}-ASQLSTAALGRLSAELHELATLPRTETGSGSP-NH2
SMILES: CC(C)C[C@H](NC(=O)[C@H](C)NC(=O)[C@H](C)NC(=O)[C@@H](NC(=O)[C@H](CO)NC(=O)[C@H](CC(C)C)NC(=O)[C@H](CCC(N)=O)NC(=O)[C@H](CO)NC(=O)[C@H](C)NC(=O)CC[C@H](NC(=O)CCCCCCCCCCCCCCCCC(=O)O)C(=O)O)[C@@H](C)O)C(=O)NCC(=O)N[C@@H](CCCNC(=N)N)C(=O)N[C@@H](CC(C)C)C(=O)N[C@@H](CO)C(=O)N[C@@H](C)C(=O)N[C@@H](CCC(=O)O)C(=O)N[C@@H](CC(C)C)C(=O)N[C@@H](Cc1c[nH]cn1)C(=O)N[C@@H](CCC(=O)O)C(=O)N[C@@H](CC(C)C)C(=O)N[C@@H](C)C(=O)N[C@H](C(=O)N[C@@H](CC(C)C)C(=O)N1CCC[C@H]1C(=O)N[C@@H](CCCNC(=N)N)C(=O)N[C@H](C(=O)N[C@@H](CCC(=O)O)C(=O)N[C@H](C(=O)NCC(=O)N[C@@H](CO)C(=O)NCC(=O)N[C@@H](CO)C(=O)N1CCC[C@H]1C(N)=O)[C@@H](C)O)[C@@H](C)O)[C@@H](C)O
On to B2, for which the IC50 worked out at 0.587 nM.

B3: [N-terminal(C18 diacid-gGlu), des1, 6T, 9V, 30S, 31G]mimylin (peptide)
peptide: {C18 diacid-γGlu}-ASELTTAVLGRLSAELHELATLPRTETGSGSP-NH2
SMILES: CC(C)C[C@H](NC(=O)[C@H](CCC(=O)O)NC(=O)[C@H](Cc1c[nH]cn1)NC(=O)[C@H](CC(C)C)NC(=O)[C@H](CCC(=O)O)NC(=O)[C@H](C)NC(=O)[C@H](CO)NC(=O)[C@H](CC(C)C)NC(=O)[C@H](CCCNC(=N)N)NC(=O)CNC(=O)[C@H](CC(C)C)NC(=O)[C@@H](NC(=O)[C@H](C)NC(=O)[C@@H](NC(=O)[C@@H](NC(=O)[C@H](CC(C)C)NC(=O)[C@H](CCC(=O)O)NC(=O)[C@H](CO)NC(=O)[C@H](C)NC(=O)CC[C@H](NC(=O)CCCCCCCCCCCCCCCCC(=O)O)C(=O)O)[C@@H](C)O)[C@@H](C)O)C(C)C)C(=O)N[C@@H](C)C(=O)N[C@H](C(=O)N[C@@H](CC(C)C)C(=O)N1CCC[C@H]1C(=O)N[C@@H](CCCNC(=N)N)C(=O)N[C@H](C(=O)N[C@@H](CCC(=O)O)C(=O)N[C@H](C(=O)NCC(=O)N[C@@H](CO)C(=O)NCC(=O)N[C@@H](CO)C(=O)N1CCC[C@H]1C(N)=O)[C@@H](C)O)[C@@H](C)O)[C@@H](C)O
For B3, the IC50 came out at 0.653 nM.

B4: [N-terminal(C20 diacid-gGlu), -1E, 1A, 23Y, 30S, 31G]mimylin (peptide)
peptide: {C20 diacid-γGlu}-EAASELSTAALGRLSAELHELATYPRTETGSGSP-NH2
SMILES: CC(C)C[C@H](NC(=O)[C@H](C)NC(=O)[C@H](C)NC(=O)[C@@H](NC(=O)[C@H](CO)NC(=O)[C@H](CC(C)C)NC(=O)[C@H](CCC(=O)O)NC(=O)[C@H](CO)NC(=O)[C@H](C)NC(=O)[C@H](C)NC(=O)[C@H](CCC(=O)O)NC(=O)CC[C@H](NC(=O)CCCCCCCCCCCCCCCCCCC(=O)O)C(=O)O)[C@@H](C)O)C(=O)NCC(=O)N[C@@H](CCCNC(=N)N)C(=O)N[C@@H](CC(C)C)C(=O)N[C@@H](CO)C(=O)N[C@@H](C)C(=O)N[C@@H](CCC(=O)O)C(=O)N[C@@H](CC(C)C)C(=O)N[C@@H](Cc1c[nH]cn1)C(=O)N[C@@H](CCC(=O)O)C(=O)N[C@@H](CC(C)C)C(=O)N[C@@H](C)C(=O)N[C@H](C(=O)N[C@@H](Cc1ccc(O)cc1)C(=O)N1CCC[C@H]1C(=O)N[C@@H](CCCNC(=N)N)C(=O)N[C@H](C(=O)N[C@@H](CCC(=O)O)C(=O)N[C@H](C(=O)NCC(=O)N[C@@H](CO)C(=O)NCC(=O)N[C@@H](CO)C(=O)N1CCC[C@H]1C(N)=O)[C@@H](C)O)[C@@H](C)O)[C@@H](C)O
As to B4, the IC50 is 1.92 nM.

B5: [N-terminal(C18 diacid-gGlu), des1, 9V, 30S, 31G]mimylin (peptide)
peptide: {C18 diacid-γGlu}-ASELSTAVLGRLSAELHELATLPRTETGSGSP-NH2
SMILES: CC(C)C[C@H](NC(=O)[C@H](CCC(=O)O)NC(=O)[C@H](Cc1c[nH]cn1)NC(=O)[C@H](CC(C)C)NC(=O)[C@H](CCC(=O)O)NC(=O)[C@H](C)NC(=O)[C@H](CO)NC(=O)[C@H](CC(C)C)NC(=O)[C@H](CCCNC(=N)N)NC(=O)CNC(=O)[C@H](CC(C)C)NC(=O)[C@@H](NC(=O)[C@H](C)NC(=O)[C@@H](NC(=O)[C@H](CO)NC(=O)[C@H](CC(C)C)NC(=O)[C@H](CCC(=O)O)NC(=O)[C@H](CO)NC(=O)[C@H](C)NC(=O)CC[C@H](NC(=O)CCCCCCCCCCCCCCCCC(=O)O)C(=O)O)[C@@H](C)O)C(C)C)C(=O)N[C@@H](C)C(=O)N[C@H](C(=O)N[C@@H](CC(C)C)C(=O)N1CCC[C@H]1C(=O)N[C@@H](CCCNC(=N)N)C(=O)N[C@H](C(=O)N[C@@H](CCC(=O)O)C(=O)N[C@H](C(=O)NCC(=O)N[C@@H](CO)C(=O)NCC(=O)N[C@@H](CO)C(=O)N1CCC[C@H]1C(N)=O)[C@@H](C)O)[C@@H](C)O)[C@@H](C)O
Turning to B5, the IC50 worked out at 0.764 nM. The result for {C20 diacid-γGlu}-ASGLSTAALGRLSAELHELATYPRTETGSGSP-NH2 [[N-terminal(C20 diacid-gGlu), des1, 4G, 23Y, 30S, 31G]mimylin] reads 0.111 nM.

B6: [N-terminal(C18 diacid-gGlu), des1, 30S, 31G, 32P]mimylin (peptide)
peptide: {C18 diacid-γGlu}-ASELSTAALGRLSAELHELATLPRTETGSGPP-NH2
SMILES: CC(C)C[C@H](NC(=O)[C@H](C)NC(=O)[C@H](C)NC(=O)[C@@H](NC(=O)[C@H](CO)NC(=O)[C@H](CC(C)C)NC(=O)[C@H](CCC(=O)O)NC(=O)[C@H](CO)NC(=O)[C@H](C)NC(=O)CC[C@H](NC(=O)CCCCCCCCCCCCCCCCC(=O)O)C(=O)O)[C@@H](C)O)C(=O)NCC(=O)N[C@@H](CCCNC(=N)N)C(=O)N[C@@H](CC(C)C)C(=O)N[C@@H](CO)C(=O)N[C@@H](C)C(=O)N[C@@H](CCC(=O)O)C(=O)N[C@@H](CC(C)C)C(=O)N[C@@H](Cc1c[nH]cn1)C(=O)N[C@@H](CCC(=O)O)C(=O)N[C@@H](CC(C)C)C(=O)N[C@@H](C)C(=O)N[C@H](C(=O)N[C@@H](CC(C)C)C(=O)N1CCC[C@H]1C(=O)N[C@@H](CCCNC(=N)N)C(=O)N[C@H](C(=O)N[C@@H](CCC(=O)O)C(=O)N[C@H](C(=O)NCC(=O)N[C@@H](CO)C(=O)NCC(=O)N1CCC[C@H]1C(=O)N1CCC[C@H]1C(N)=O)[C@@H](C)O)[C@@H](C)O)[C@@H](C)O
As for B6, the IC50 turned out to be 22 nM.
